In the supplement of paper PMC10065799, “High-throughput profiling of sequence recognition by tyrosine kinases and SH2 domains using bacterial peptide display” (eLife, 2023):
Each block holds one sequence with its values, some of them ahead of it.

Key:
AncSZ = test: phosphorylation enrichment, bacterial display (enrichment ratio); higher = better substrate or ligand; peptides without Tyr show the background
EPHB1 = EPHB1 (UniProt P54762); test: as above
EPHB2 = EPHB2 (UniProt P29323); test: as above
Chain of EPHB2 (P29323 whole entry, looked up): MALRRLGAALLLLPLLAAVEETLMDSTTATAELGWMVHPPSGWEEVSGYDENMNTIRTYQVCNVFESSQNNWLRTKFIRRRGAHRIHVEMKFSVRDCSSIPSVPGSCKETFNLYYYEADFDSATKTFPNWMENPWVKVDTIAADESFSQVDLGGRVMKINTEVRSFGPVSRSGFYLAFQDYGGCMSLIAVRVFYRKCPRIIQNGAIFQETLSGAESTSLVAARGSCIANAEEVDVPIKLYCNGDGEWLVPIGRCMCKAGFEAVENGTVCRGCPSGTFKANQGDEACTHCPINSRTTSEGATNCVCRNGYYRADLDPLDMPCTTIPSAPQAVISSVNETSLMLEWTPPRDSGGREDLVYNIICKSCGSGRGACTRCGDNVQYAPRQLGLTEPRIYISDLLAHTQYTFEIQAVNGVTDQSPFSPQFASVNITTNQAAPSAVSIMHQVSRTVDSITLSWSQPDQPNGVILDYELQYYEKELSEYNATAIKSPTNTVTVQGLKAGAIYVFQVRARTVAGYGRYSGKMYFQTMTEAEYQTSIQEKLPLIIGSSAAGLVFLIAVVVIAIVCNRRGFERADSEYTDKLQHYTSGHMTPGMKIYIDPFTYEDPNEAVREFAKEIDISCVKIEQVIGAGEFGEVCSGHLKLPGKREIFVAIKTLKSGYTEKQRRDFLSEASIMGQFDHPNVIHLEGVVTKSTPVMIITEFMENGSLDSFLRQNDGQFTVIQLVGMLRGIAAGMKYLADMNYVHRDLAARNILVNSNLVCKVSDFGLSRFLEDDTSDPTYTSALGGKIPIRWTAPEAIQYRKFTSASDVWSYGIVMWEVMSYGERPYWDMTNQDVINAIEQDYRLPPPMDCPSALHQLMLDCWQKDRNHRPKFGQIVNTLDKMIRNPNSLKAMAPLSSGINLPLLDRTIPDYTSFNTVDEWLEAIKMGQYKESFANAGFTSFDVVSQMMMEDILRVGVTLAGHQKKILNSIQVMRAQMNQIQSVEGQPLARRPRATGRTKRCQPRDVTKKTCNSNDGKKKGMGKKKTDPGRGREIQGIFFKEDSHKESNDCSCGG

FGFR1 = FGFR1 (UniProt P11362); test: as above
Chain of FGFR1 (P11362 whole entry, looked up): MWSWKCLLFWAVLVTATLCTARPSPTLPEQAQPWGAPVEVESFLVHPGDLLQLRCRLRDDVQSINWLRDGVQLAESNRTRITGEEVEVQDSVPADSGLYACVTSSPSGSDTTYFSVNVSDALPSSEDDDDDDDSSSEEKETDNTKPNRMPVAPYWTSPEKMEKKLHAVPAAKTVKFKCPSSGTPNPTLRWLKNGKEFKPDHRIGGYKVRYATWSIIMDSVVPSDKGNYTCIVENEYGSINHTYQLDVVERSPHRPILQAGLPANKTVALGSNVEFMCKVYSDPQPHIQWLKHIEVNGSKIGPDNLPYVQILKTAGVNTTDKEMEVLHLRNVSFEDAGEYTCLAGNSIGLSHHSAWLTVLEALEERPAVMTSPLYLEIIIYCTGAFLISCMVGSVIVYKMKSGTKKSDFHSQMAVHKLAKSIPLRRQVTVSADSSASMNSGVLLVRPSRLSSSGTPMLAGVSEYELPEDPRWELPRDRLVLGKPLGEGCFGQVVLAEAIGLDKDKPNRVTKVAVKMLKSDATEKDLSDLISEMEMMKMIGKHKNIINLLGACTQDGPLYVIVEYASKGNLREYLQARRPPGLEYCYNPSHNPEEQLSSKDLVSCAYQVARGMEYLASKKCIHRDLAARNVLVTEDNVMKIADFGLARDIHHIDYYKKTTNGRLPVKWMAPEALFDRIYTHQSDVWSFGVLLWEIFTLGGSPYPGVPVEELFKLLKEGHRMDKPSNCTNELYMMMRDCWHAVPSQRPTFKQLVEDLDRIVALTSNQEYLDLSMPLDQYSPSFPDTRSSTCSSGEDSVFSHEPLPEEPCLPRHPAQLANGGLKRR

FGFR3 = FGFR3 (UniProt P22607); test: as above
Fer (mouse) = test: as above
Fes = Fes (UniProt P07332); test: as above
Fyn = Fyn (UniProt P06241); test: as above
Chain of Fyn (P06241 whole entry, looked up): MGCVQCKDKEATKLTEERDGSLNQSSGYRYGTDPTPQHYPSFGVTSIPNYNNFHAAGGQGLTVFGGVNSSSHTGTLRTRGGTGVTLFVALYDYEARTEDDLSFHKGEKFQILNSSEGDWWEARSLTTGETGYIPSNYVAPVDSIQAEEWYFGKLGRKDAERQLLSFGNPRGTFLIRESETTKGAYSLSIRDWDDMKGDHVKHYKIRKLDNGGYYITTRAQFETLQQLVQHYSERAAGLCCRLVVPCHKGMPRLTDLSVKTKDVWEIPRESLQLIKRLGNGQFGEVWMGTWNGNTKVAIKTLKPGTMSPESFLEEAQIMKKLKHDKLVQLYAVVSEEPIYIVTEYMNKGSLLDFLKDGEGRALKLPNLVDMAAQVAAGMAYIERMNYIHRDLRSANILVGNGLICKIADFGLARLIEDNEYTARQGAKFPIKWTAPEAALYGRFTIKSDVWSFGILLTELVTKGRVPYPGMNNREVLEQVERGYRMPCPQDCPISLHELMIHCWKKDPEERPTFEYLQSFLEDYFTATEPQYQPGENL

Hck = Hck (UniProt P08631); test: as above
Chain of Hck (P08631 whole entry, looked up): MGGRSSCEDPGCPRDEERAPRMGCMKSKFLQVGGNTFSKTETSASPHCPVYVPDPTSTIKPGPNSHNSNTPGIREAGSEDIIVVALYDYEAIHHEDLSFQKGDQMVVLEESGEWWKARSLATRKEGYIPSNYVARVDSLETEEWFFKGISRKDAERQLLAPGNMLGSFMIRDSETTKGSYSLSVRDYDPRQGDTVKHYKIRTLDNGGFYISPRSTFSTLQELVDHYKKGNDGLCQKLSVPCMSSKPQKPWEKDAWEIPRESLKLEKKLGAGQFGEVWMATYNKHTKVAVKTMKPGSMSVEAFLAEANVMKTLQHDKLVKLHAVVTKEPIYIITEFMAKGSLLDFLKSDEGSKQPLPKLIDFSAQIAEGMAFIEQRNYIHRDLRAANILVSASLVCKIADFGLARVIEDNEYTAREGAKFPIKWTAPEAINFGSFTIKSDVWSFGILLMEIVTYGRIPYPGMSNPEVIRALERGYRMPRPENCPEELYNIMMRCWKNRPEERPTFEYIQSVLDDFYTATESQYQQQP

Jak2 = Jak2 (UniProt O60674); test: as above
Chain of Jak2 (O60674 whole entry, looked up): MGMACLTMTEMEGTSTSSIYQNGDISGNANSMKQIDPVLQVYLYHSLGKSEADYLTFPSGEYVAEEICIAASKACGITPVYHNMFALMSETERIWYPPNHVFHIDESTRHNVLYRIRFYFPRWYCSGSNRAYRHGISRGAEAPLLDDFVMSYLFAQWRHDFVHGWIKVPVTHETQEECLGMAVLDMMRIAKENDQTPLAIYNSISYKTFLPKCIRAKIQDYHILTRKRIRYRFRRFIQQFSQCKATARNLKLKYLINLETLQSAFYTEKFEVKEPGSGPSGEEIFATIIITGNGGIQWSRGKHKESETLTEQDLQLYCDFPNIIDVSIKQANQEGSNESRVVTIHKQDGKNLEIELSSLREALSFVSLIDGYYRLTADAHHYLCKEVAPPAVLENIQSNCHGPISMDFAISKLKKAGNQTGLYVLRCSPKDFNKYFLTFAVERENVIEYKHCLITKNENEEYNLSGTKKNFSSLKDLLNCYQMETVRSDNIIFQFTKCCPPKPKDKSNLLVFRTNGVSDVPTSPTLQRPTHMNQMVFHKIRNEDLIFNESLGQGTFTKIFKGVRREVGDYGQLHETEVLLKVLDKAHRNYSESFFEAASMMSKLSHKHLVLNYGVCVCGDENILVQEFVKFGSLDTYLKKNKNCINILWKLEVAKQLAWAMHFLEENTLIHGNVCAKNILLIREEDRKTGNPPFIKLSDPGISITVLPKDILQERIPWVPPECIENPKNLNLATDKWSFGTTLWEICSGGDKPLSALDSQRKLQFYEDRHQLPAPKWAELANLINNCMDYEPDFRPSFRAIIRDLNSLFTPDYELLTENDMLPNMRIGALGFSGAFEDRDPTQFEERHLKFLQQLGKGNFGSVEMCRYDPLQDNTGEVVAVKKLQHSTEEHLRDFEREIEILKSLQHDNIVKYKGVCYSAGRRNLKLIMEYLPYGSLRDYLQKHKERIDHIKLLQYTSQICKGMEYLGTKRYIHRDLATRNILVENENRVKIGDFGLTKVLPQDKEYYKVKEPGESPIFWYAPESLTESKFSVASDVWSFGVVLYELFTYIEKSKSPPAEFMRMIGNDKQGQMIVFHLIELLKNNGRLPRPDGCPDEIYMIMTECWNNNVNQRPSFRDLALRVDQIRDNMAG

MERTK = MERTK (UniProt Q12866); test: as above
Chain of MERTK (Q12866 whole entry, looked up): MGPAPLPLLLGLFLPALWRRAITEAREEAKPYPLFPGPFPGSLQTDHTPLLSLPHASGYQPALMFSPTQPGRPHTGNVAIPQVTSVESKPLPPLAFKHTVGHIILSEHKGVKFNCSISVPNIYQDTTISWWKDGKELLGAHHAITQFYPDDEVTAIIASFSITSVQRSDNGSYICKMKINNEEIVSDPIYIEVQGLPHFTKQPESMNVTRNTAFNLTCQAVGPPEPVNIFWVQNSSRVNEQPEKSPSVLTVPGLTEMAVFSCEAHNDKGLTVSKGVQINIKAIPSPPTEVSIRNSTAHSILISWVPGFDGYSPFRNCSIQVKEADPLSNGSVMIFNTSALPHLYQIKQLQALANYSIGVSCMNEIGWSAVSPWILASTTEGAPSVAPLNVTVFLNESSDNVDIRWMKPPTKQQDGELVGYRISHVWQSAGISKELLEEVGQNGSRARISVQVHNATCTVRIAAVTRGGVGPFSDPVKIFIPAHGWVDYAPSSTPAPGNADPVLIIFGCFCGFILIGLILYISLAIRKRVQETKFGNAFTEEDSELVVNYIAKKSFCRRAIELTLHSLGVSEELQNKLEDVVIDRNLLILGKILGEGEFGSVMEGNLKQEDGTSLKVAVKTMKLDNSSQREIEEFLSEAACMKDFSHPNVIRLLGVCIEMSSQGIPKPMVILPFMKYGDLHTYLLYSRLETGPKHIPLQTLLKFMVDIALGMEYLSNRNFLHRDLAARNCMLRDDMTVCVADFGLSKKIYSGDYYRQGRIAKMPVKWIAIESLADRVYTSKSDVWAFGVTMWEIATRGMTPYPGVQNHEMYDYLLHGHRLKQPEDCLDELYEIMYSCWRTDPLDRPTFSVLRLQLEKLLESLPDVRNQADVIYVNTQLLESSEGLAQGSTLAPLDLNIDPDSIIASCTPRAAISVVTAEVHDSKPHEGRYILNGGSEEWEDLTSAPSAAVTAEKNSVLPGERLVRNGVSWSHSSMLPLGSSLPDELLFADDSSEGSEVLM

c-Abl (mouse) = test: as above
c-Src = test: as above
Grb2 SH2 = Grb2 SH2 (UniProt P62993); test: SH2 binding enrichment of the phosphorylated peptide, bacterial display (enrichment ratio); higher = better substrate or ligand; peptides without Tyr show the background
SHP2-C SH2 = test: as above
c-Src SH2 = test: as above
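Wherever SH2 binding enrichment of the phosphorylated peptide, bacterial display is given: peptide library displayed on the E. coli surface as eCPX fusions, selected cells deep-sequenced, score is each peptide's frequency after selection divided by its frequency in the input.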
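Wherever phosphorylation enrichment, bacterial display is given: 11-residue human phosphosite peptides and single-mutation variants displayed on the E. coli surface, counted by deep sequencing, each peptide's frequency after selection divided by its frequency in the unselected input library; frequency after pTyr selection over input frequency; kinase dosed for 20-30% of maximal phosphorylation in three min.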

- SH2 binding enrichment (Grb2 SH2): 0.995
- SH2 binding enrichment (SHP2-C SH2): 0.556
- SH2 binding enrichment (c-Src SH2): 0.56
Sequence: VHNLDYFKMTT [FGFR3_Y647_K650M_YF]
- phosphorylation enrichment (AncSZ): 1.06
- phosphorylation enrichment (EPHB1): 0.456
- phosphorylation enrichment (EPHB2): 0.383
- phosphorylation enrichment (FGFR1): 7
- phosphorylation enrichment (FGFR3): 4.21
- phosphorylation enrichment (Fer (mouse)): 0.325
- phosphorylation enrichment (Fes): 0.653
- phosphorylation enrichment (Fyn): 0.33
- phosphorylation enrichment (Hck): 0.394
- phosphorylation enrichment (Jak2): 7.7
- phosphorylation enrichment (MERTK): 0.356
- phosphorylation enrichment (c-Abl (mouse)): 0.521
- phosphorylation enrichment (c-Src): 0.397

- SH2 binding enrichment (Grb2 SH2): 0.739
- SH2 binding enrichment (SHP2-C SH2): 0.54
- SH2 binding enrichment (c-Src SH2): 0.454
Sequence: VILENYGADID [DNAH5_Y596_L591V]
- phosphorylation enrichment (AncSZ): 1.06
- phosphorylation enrichment (EPHB1): 0.555
- phosphorylation enrichment (EPHB2): 0.589
- phosphorylation enrichment (FGFR1): 0.557
- phosphorylation enrichment (FGFR3): 0.719
- phosphorylation enrichment (Fer (mouse)): 0.492
- phosphorylation enrichment (Fes): 1.11
- phosphorylation enrichment (Fyn): 0.653
- phosphorylation enrichment (Hck): 0.515
- phosphorylation enrichment (Jak2): 1.13
- phosphorylation enrichment (MERTK): 0.641
- phosphorylation enrichment (c-Abl (mouse)): 0.674
- phosphorylation enrichment (c-Src): 0.5

- SH2 binding enrichment (Grb2 SH2): 0.781
- SH2 binding enrichment (SHP2-C SH2): 0.671
- SH2 binding enrichment (c-Src SH2): 0.486
Sequence: VKPHRYRPGTV [H3-5_Y41]
- phosphorylation enrichment (AncSZ): 0.513
- phosphorylation enrichment (EPHB1): 0.378
- phosphorylation enrichment (EPHB2): 0.337
- phosphorylation enrichment (FGFR1): 0.407
- phosphorylation enrichment (FGFR3): 0.346
- phosphorylation enrichment (Fer (mouse)): 0.362
- phosphorylation enrichment (Fes): 0.573
- phosphorylation enrichment (Fyn): 0.386
- phosphorylation enrichment (Hck): 0.328
- phosphorylation enrichment (Jak2): 0.494
- phosphorylation enrichment (MERTK): 0.456
- phosphorylation enrichment (c-Abl (mouse)): 0.613
- phosphorylation enrichment (c-Src): 0.434

- SH2 binding enrichment (Grb2 SH2): 1.39
- SH2 binding enrichment (SHP2-C SH2): 0.841
- SH2 binding enrichment (c-Src SH2): 0.524
Sequence: VLTSKYRGGGG [HBA1_Y141]
- phosphorylation enrichment (AncSZ): 0.386
- phosphorylation enrichment (EPHB1): 0.475
- phosphorylation enrichment (EPHB2): 0.278
- phosphorylation enrichment (FGFR1): 0.332
- phosphorylation enrichment (FGFR3): 0.468
- phosphorylation enrichment (Fer (mouse)): 0.374
- phosphorylation enrichment (Fes): 0.911
- phosphorylation enrichment (Fyn): 0.366
- phosphorylation enrichment (Hck): 0.563
- phosphorylation enrichment (Jak2): 0.454
- phosphorylation enrichment (MERTK): 0.556
- phosphorylation enrichment (c-Abl (mouse)): 0.494
- phosphorylation enrichment (c-Src): 0.435

- SH2 binding enrichment (Grb2 SH2): 1.04
- SH2 binding enrichment (SHP2-C SH2): 1.46
- SH2 binding enrichment (c-Src SH2): 0.741
Sequence: VNFDYYTVNLG [GFPT1_Y367_D366Y]
- phosphorylation enrichment (AncSZ): 5.81
- phosphorylation enrichment (EPHB1): 6.6
- phosphorylation enrichment (EPHB2): 5.41
- phosphorylation enrichment (FGFR1): 15.6
- phosphorylation enrichment (FGFR3): 14.5
- phosphorylation enrichment (Fer (mouse)): 6.01
- phosphorylation enrichment (Fes): 1.25
- phosphorylation enrichment (Fyn): 5.83
- phosphorylation enrichment (Hck): 4.22
- phosphorylation enrichment (Jak2): 9.69
- phosphorylation enrichment (MERTK): 4.02
- phosphorylation enrichment (c-Abl (mouse)): 1.36
- phosphorylation enrichment (c-Src): 4.7

- SH2 binding enrichment (Grb2 SH2): 1.14
- SH2 binding enrichment (SHP2-C SH2): 0.919
- SH2 binding enrichment (c-Src SH2): 0.498
Sequence: VNKIFYPDFIV [LIG3_Y768_YF]
- phosphorylation enrichment (AncSZ): 1
- phosphorylation enrichment (EPHB1): 0.465
- phosphorylation enrichment (EPHB2): 0.928
- phosphorylation enrichment (FGFR1): 0.49
- phosphorylation enrichment (FGFR3): 0.584
- phosphorylation enrichment (Fer (mouse)): 0.5
- phosphorylation enrichment (Fes): 1.08
- phosphorylation enrichment (Fyn): 0.464
- phosphorylation enrichment (Hck): 0.529
- phosphorylation enrichment (Jak2): 0.811
- phosphorylation enrichment (MERTK): 0.518
- phosphorylation enrichment (c-Abl (mouse)): 0.612
- phosphorylation enrichment (c-Src): 0.432

- SH2 binding enrichment (Grb2 SH2): 0.984
- SH2 binding enrichment (SHP2-C SH2): 0.533
- SH2 binding enrichment (c-Src SH2): 0.564
Sequence: VNNTVYGIDAM [EIF3J_Y143_A141T]
- phosphorylation enrichment (AncSZ): 0.724
- phosphorylation enrichment (EPHB1): 0.479
- phosphorylation enrichment (EPHB2): 0.429
- phosphorylation enrichment (FGFR1): 0.512
- phosphorylation enrichment (FGFR3): 0.461
- phosphorylation enrichment (Fer (mouse)): 0.423
- phosphorylation enrichment (Fes): 0.698
- phosphorylation enrichment (Fyn): 0.907
- phosphorylation enrichment (Hck): 0.626
- phosphorylation enrichment (Jak2): 0.696
- phosphorylation enrichment (MERTK): 0.349
- phosphorylation enrichment (c-Abl (mouse)): 0.616
- phosphorylation enrichment (c-Src): 0.596

- SH2 binding enrichment (Grb2 SH2): 0.861
- SH2 binding enrichment (SHP2-C SH2): 9.3
- SH2 binding enrichment (c-Src SH2): 8.52
Sequence: VNQSGYTLIRK [ATP6V0A2_Y688_R685Q]
- phosphorylation enrichment (AncSZ): 0.572
- phosphorylation enrichment (EPHB1): 0.42
- phosphorylation enrichment (EPHB2): 0.478
- phosphorylation enrichment (FGFR1): 0.452
- phosphorylation enrichment (FGFR3): 0.465
- phosphorylation enrichment (Fer (mouse)): 0.401
- phosphorylation enrichment (Fes): 0.563
- phosphorylation enrichment (Fyn): 0.387
- phosphorylation enrichment (Hck): 0.476
- phosphorylation enrichment (Jak2): 0.538
- phosphorylation enrichment (MERTK): 0.433
- phosphorylation enrichment (c-Abl (mouse)): 0.391
- phosphorylation enrichment (c-Src): 0.418

The remaining lines, values behind:

Sequence: VIKDKYPKAHF [APTX_Y209_R213H_YF]
- phosphorylation enrichment (AncSZ): 0.523
- phosphorylation enrichment (EPHB1): 0.285
- phosphorylation enrichment (EPHB2): 0.3
- phosphorylation enrichment (FGFR1): 0.38
- phosphorylation enrichment (FGFR3): 0.387
- phosphorylation enrichment (Fer (mouse)): 0.355
- phosphorylation enrichment (Fes): 0.493
- phosphorylation enrichment (Fyn): 0.389
- phosphorylation enrichment (Hck): 0.284
- phosphorylation enrichment (Jak2): 0.534
- phosphorylation enrichment (MERTK): 0.356
- phosphorylation enrichment (c-Abl (mouse)): 0.514
- phosphorylation enrichment (c-Src): 0.369
- SH2 binding enrichment (Grb2 SH2): 0.999
- SH2 binding enrichment (SHP2-C SH2): 1.01
- SH2 binding enrichment (c-Src SH2): 0.766

Sequence: VIKDKYPKARY [APTX_Y209]
- phosphorylation enrichment (AncSZ): 0.728
- phosphorylation enrichment (EPHB1): 0.376
- phosphorylation enrichment (EPHB2): 0.417
- phosphorylation enrichment (FGFR1): 0.44
- phosphorylation enrichment (FGFR3): 0.551
- phosphorylation enrichment (Fer (mouse)): 0.426
- phosphorylation enrichment (Fes): 0.699
- phosphorylation enrichment (Fyn): 0.256
- phosphorylation enrichment (Hck): 0.373
- phosphorylation enrichment (Jak2): 0.83
- phosphorylation enrichment (MERTK): 0.38
- phosphorylation enrichment (c-Abl (mouse)): 0.692
- phosphorylation enrichment (c-Src): 0.454
- SH2 binding enrichment (Grb2 SH2): 1.31
- SH2 binding enrichment (SHP2-C SH2): 1.05
- SH2 binding enrichment (c-Src SH2): 1.25

Sequence: VITTLYIGFLG [KCNQ1_Y267_L262V]
- phosphorylation enrichment (AncSZ): 1.18
- phosphorylation enrichment (EPHB1): 0.759
- phosphorylation enrichment (EPHB2): 0.636
- phosphorylation enrichment (FGFR1): 0.692
- phosphorylation enrichment (FGFR3): 0.874
- phosphorylation enrichment (Fer (mouse)): 0.605
- phosphorylation enrichment (Fes): 1.25
- phosphorylation enrichment (Fyn): 1.34
- phosphorylation enrichment (Hck): 1.32
- phosphorylation enrichment (Jak2): 1.15
- phosphorylation enrichment (MERTK): 0.659
- phosphorylation enrichment (c-Abl (mouse)): 0.931
- phosphorylation enrichment (c-Src): 1.84
- SH2 binding enrichment (Grb2 SH2): 0.888
- SH2 binding enrichment (SHP2-C SH2): 0.862
- SH2 binding enrichment (c-Src SH2): 0.615

Sequence: VKGGAYNPVTV [MCCC2_Y145_Y146N]
- phosphorylation enrichment (AncSZ): 0.552
- phosphorylation enrichment (EPHB1): 0.471
- phosphorylation enrichment (EPHB2): 0.372
- phosphorylation enrichment (FGFR1): 0.447
- phosphorylation enrichment (FGFR3): 0.469
- phosphorylation enrichment (Fer (mouse)): 0.526
- phosphorylation enrichment (Fes): 0.644
- phosphorylation enrichment (Fyn): 0.456
- phosphorylation enrichment (Hck): 0.434
- phosphorylation enrichment (Jak2): 0.781
- phosphorylation enrichment (MERTK): 0.471
- phosphorylation enrichment (c-Abl (mouse)): 0.609
- phosphorylation enrichment (c-Src): 0.511
- SH2 binding enrichment (Grb2 SH2): 0.814
- SH2 binding enrichment (SHP2-C SH2): 0.558
- SH2 binding enrichment (c-Src SH2): 0.466

Sequence: VLALWYYYLTN [ZDHHC23_Y127_H132N]
- phosphorylation enrichment (AncSZ): 1.29
- phosphorylation enrichment (EPHB1): 1.1
- phosphorylation enrichment (EPHB2): 0.851
- phosphorylation enrichment (FGFR1): 8.15
- phosphorylation enrichment (FGFR3): 6.91
- phosphorylation enrichment (Fer (mouse)): 0.766
- phosphorylation enrichment (Fes): 1.81
- phosphorylation enrichment (Fyn): 0.611
- phosphorylation enrichment (Hck): 0.738
- phosphorylation enrichment (Jak2): 3.09
- phosphorylation enrichment (MERTK): 3.86
- phosphorylation enrichment (c-Abl (mouse)): 1.05
- phosphorylation enrichment (c-Src): 1.35
- SH2 binding enrichment (Grb2 SH2): 1.24
- SH2 binding enrichment (SHP2-C SH2): 1.22
- SH2 binding enrichment (c-Src SH2): 1.02

Sequence: VLPIDYYFPPQ [AR_Y552]
- phosphorylation enrichment (AncSZ): 4.75
- phosphorylation enrichment (EPHB1): 3.48
- phosphorylation enrichment (EPHB2): 3.36
- phosphorylation enrichment (FGFR1): 15.4
- phosphorylation enrichment (FGFR3): 12.6
- phosphorylation enrichment (Fer (mouse)): 0.694
- phosphorylation enrichment (Fes): 1.08
- phosphorylation enrichment (Fyn): 0.687
- phosphorylation enrichment (Hck): 0.869
- phosphorylation enrichment (Jak2): 6.26
- phosphorylation enrichment (MERTK): 2.47
- phosphorylation enrichment (c-Abl (mouse)): 1.06
- phosphorylation enrichment (c-Src): 1.28
- SH2 binding enrichment (Grb2 SH2): 0.962
- SH2 binding enrichment (SHP2-C SH2): 0.85
- SH2 binding enrichment (c-Src SH2): 1.03

Sequence: VMIFAYLLHRG [PTEN_Y138_C136Y_YF]
- phosphorylation enrichment (AncSZ): 0.807
- phosphorylation enrichment (EPHB1): 0.447
- phosphorylation enrichment (EPHB2): 0.392
- phosphorylation enrichment (FGFR1): 0.383
- phosphorylation enrichment (FGFR3): 0.422
- phosphorylation enrichment (Fer (mouse)): 0.378
- phosphorylation enrichment (Fes): 0.828
- phosphorylation enrichment (Fyn): 0.352
- phosphorylation enrichment (Hck): 0.406
- phosphorylation enrichment (Jak2): 0.739
- phosphorylation enrichment (MERTK): 0.325
- phosphorylation enrichment (c-Abl (mouse)): 0.781
- phosphorylation enrichment (c-Src): 0.415
- SH2 binding enrichment (Grb2 SH2): 1.59
- SH2 binding enrichment (SHP2-C SH2): 1.52
- SH2 binding enrichment (c-Src SH2): 0.837
